{
  "source": "patent US20080193947A1",
  "about": "“Complementary Peptides For Beta-Amyloid 29-42 Peptide” (priority 2004, published 2008)",
  "key": {"[1]": {"system": "SH-SY5Y cells", "test": "Cell toxicity assay (MTS) in presence of both the Aβ 1-42 and ApoE 270-287 peptides", "assay_type": "cell-based, human", "settings": "2 μM ApoE 270-287 + 100 μM Aβ 1-42 (ratio 1/50), 24 h, FIG. 9"}, "[2]": {"system": "SH-SY5Y cells", "test": "Cell toxicity assay (MTS) of single peptides on human neuroblastoma cell line", "assay_type": "cell-based", "settings": "24 h, FIG. 7 / FIG. 8"}, "[3]": {"biological_target": "T1, Aβ 29-42 (Homo sapiens, UniProt P05067)", "assay_type": "biochemical", "settings": "for % of fusion after 15 minutes: 1/1 peptide ratio, room temperature, average of plateau (10-15 minutes) of three experiments, Aβ alone = 100%"}, "[4]": {"biological_target": "T1, Aβ 29-42", "assay_type": "biochemical", "parameters": "made in house; host or cells: chemical peptide synthesis (no expression host)", "settings": "for HPTS fluorescence signal when added to Aβ 29-42 (inhibition of membrane destabilization): independently of the mutant/Aβ 29-42 molar ratio, Aβ peptide/lipid molar ratio 0.4, FIGS. 4a and b", "description": "(§1) In this leakage assay, performed according to the procedure described in Ellens et al. (Ellens, H., Bentz, J., and Szoka, F. C. (1985) Biochemistry 24, 3099-3106), a substance encapsulated in the liposomes is followed by fluorescence measurement. HPTS ([…]) and his quencher DPX (p-xylylenebis[pyridinium]bromide) were both encapsulated in the aqueous phase of the same liposomes. Liposomes were eluted on a Sephadex G75 column to remove the excess of HPTS and DPX.\n(§2) Fluorescence was measured at room temperature using excitation and emission wavelengths of 450 nm and 512 nm, respectively. Leakage induced by the Aβ peptide was followed by measuring the dequenching of HPTS released into the medium. The percentage of release induced by the peptide was defined as Ft/Ftot×100, where Ft is the fluorescence signal measured at time t and Ftot is the signal obtained after lysing the vesicles with 0.5% Triton X100."}, "[5]": {"system": "Aβ 29-42", "assay_type": "biochemical", "settings": "without Aβ 29-42; data not shown", "description": "as §1, §2"}, "[6]": {"biological_target": "T2, β-Amyloid peptidic fragment 29-42 (Aβ 29-42) (C-terminal and N-terminal blocked (N-amidated and C-acetylated) (so in the source))", "test": "cell-based or functional assay"}, "[7]": {"biological_target": "T2, β-Amyloid peptidic fragment 29-42 (Aβ …)", "test": "cell-based or functional assay", "remark": "listed apart in the source"}},
  "note": "Where no end group is shown, it is not given here.",
  "data": [
    {"molecule": "Ac-EDMQRQWAGLVEKVQAAV-NH2 [ApoE WT]", "values": [
      {"measurement": "cell viability in presence of Aβ 1-42 and the complementary peptide", "setting": "[1]", "value": 80, "unit": "%"},
      {"measurement": "cell toxicity (viability against increasing peptide concentrations)", "setting": "[2]", "value": "induces cell toxicity only at 100 μM"},
      {"measurement": "% of fusion after 15 minutes", "setting": "[3]", "value": 89, "unit": "%"},
      {"measurement": "fluorescence signal (lipid fusion), Aβ 29-42 alone taken as 100% fusion reference", "setting": "[3]; FIG. 3, added to Aβ 29-42 at molar ratio of 1, Aβ peptide/lipid ratio 0,4 (mol/mol)", "value": "about 91%"}
    ]},
    {"molecule": "Aβ 1-40: β-Amyloid 1-40 peptide", "values": [
      {"measurement": "cell toxicity (viability against increasing peptide concentrations)", "setting": "[2]", "value": "does not induce any"}
    ]},
    {"molecule": "EDMQRQLAGVVEKVQAAV (also: N- and C-terminal blocking) [ApoE mutant 11, peptide derived from ApoE WT]", "values": [
      {"measurement": "HPTS fluorescence signal when added to Aβ 29-42 (inhibition of membrane destabilization)", "setting": "[4]", "value": "much weaker"},
      {"measurement": "destabilization effects of the peptide alone on the membranes", "setting": "[5]", "value": "no destabilization effects on the membranes"}
    ]},
    {"molecule": "EDMQRQMAGLMEKMQAAV (also: N- and C-terminal blocking) [ApoE mutant 413, peptide derived from ApoE WT]", "values": [
      {"measurement": "HPTS fluorescence signal when added to Aβ 29-42 (inhibition of membrane destabilization)", "setting": "[4]", "value": "much weaker"},
      {"measurement": "destabilization effects of the peptide alone on the membranes", "setting": "[5]", "value": "no destabilization effects on the membranes"}
    ]},
    {"molecule": "GAIIGLMVGGVVIA (listed as Homo sapiens) [Aβ 29-42, C-terminal part of the β-Amyloid protein, tilted fusion peptide]", "values": [
      {"measurement": "% of leakage after 15 minutes", "setting": "[4]; 1/1 peptide ratio, room temperature, average of plateau (10-15 minutes) of three experiments", "value": 28, "unit": "%"},
      {"measurement": "% of fusion after 15 minutes", "setting": "[3]", "value": 100, "unit": "%"}
    ]},
    {"molecule": "Ac-EDMQRQLAGVVEKVQAAV-NH2", "note": "[ApoE mutant 11]", "values": [
      {"measurement": "R18 fluorescence signal of lipid fusion against Aβ 29-42 alone as 100% (FIG. 3, molar ratio of 1)", "setting": "[6]", "value": 23, "unit": "%"},
      {"measurement": "% of fusion after 15 minutes (R18 lipid fusion of SUV induced by Aβ 29-42, 1/1 peptide ratio)", "setting": "[7]", "value": 17, "unit": "%"},
      {"measurement": "% of leakage after 15 minutes (HPTS/DPX liposome leakage induced by Aβ 29-42, 1/1 peptide ratio)", "setting": "[7]", "value": 0, "unit": "%"}
    ]},
    {"molecule": "EDMQRQWAGLVEKVQAAV (not fully specified (N-terminus, C-terminus))", "note": "[wild type Apolipoprotein E3 peptide 270-287 (ApoE WT)]", "values": [
      {"measurement": "R18 fluorescence signal of lipid fusion against Aβ 29-42 alone as 100% (FIG. 3, molar ratio of 1)", "setting": "[6]", "value": "~91", "unit": "%"},
      {"measurement": "% of fusion after 15 minutes (R18 lipid fusion of SUV induced by Aβ 29-42, 1/1 peptide ratio)", "setting": "[7]", "value": 89, "unit": "%"}
    ]},
    {"molecule": "Ac-EDMQRQMAGLMEKMQAAV-NH2", "note": "[ApoE mutant 413]", "values": [
      {"measurement": "R18 fluorescence signal of lipid fusion against Aβ 29-42 alone as 100% (FIG. 3, molar ratio of 1)", "setting": "[6]", "value": 25, "unit": "%"},
      {"measurement": "% of fusion after 15 minutes (R18 lipid fusion of SUV induced by Aβ 29-42, 1/1 peptide ratio)", "setting": "[7]", "value": 21, "unit": "%"},
      {"measurement": "% of leakage after 15 minutes (HPTS/DPX liposome leakage induced by Aβ 29-42, 1/1 peptide ratio)", "setting": "[7]", "value": 4, "unit": "%"}
    ]}
  ]
}
